Experiment [1] concerns the target recombinant human Par-1 antigen (protease activated receptor-1) (human) (UniProt P25116). Put plainly: BLI (ForteBio Octet), Experiment 1, Fab at 1E-8 M.
For experiment [2] the target is unchanged. Briefly: BLI (ForteBio Octet), Experiment 2, Fab at 2.5E-8 M.

B1: LDS896 (Fab, V domains shown)
VH: EVQLVQSGAEVKKPGSSVKVSCKVSGGTFSNYVFNWVRQAPGQGLEWMGVINPHSGRTRYNQKFKGRVTMTTDTSTSTAYMELRSLTSDDTAVYYCARDDGPSHWYFDVWGQGTTVTVSS
VL: DIVMTQSPLSLPVTPGEPASISCRSSQSLLHRNGNNYLEWYLQKPGQSPRLLIYKISNRFSGVPDRFSGSGAGTDFTLKISRVEAEDVGVYYCFQGSHVPFTFGQGTKLEIK
modifications: Fab constant regions not given
Turning to B1, in experiment [1], the Kd worked out at 1.18 nM, the koff amounted to 0.000311 s⁻¹ and the kon was determined as 265000 M⁻¹ s⁻¹.

B2: LDW653 (Fab, V domains shown)
VH: QVQLVQSGAEVKKPGASVKVSCKASGYTFNSYYMNWVRQAPGQGLEWMGVIDPHGGRTRYNQKFKGRVTMTTDTSTSTVYMELSSLRSEDTAVYYCARDDGPSMWYFDVWGQGTTVTVSS
VL: DIVMTQSPLSLPVTPGEPASISCRSSQSLLHRNGNNYLEWYLQKPGQSPRLLIYKISNRFSGVPDRFSGSGAGTDFTLKISRVEAEDVGVYYCFQGSSVPFTFGQGTKLEIK
modifications: Fab constant regions not given
With B2, in experiment [2], the Kd is 1.13 nM, the koff stood at 0.000293 s⁻¹ and the association rate constant (kon) worked out at 259000 M⁻¹ s⁻¹.

B3: LDS900 (Fab, V domains shown)
VH: QVQLVQSGAEVKKPGASVKVSCKASGYTFNSYYMNWVRQAPGQGLEWMGVIDPHGGRTRYNQKFKGRVTMTTDTSTSTAYMELRSLTSDDTAVYYCARDDGPSLWYFDVWGQGTTVTVSS
VL: DIVMTQSPLSLPVTPGEPASISCRSSQSLLHRNGNNYLEWYLQKPGQSPRLLIYKISNRFSGVPDRFSGSGAGTDFTLKISRVEAEDVGVYYCFQGSHVPFTFGQGTKLEIK
modifications: Fab constant regions not given
Regarding B3, in experiment [2], the Kd amounted to 1.47 nM, the koff was found to be 0.000289 s⁻¹ and the kon was determined as 196000 M⁻¹ s⁻¹.

Source of the values: patent publication US20100330090A1.
